Legend:
Assay in all cases: flow cytometry, HEK293-T, alanine scan
[1] = target: human CD33 N297A (human) (UniProt P20138)
[2] = target: human CD33 T284A (human) (UniProt P20138)
[3] = target: human CD33 S307A (human) (UniProt P20138)
[4] = target: human CD33 R291A (human) (UniProt P20138)
[5] = target: human CD33 P308A (human) (UniProt P20138)
[6] = target: human CD33 T299A (human) (UniProt P20138)
[7] = target: human CD33 F279A (human) (UniProt P20138)
[8] = target: human CD33 L338A (human) (UniProt P20138)
[9] = target: human CD33 A289S (human) (UniProt P20138)
Sequence of human CD33 A289S (human) (P20138 18-364 A289S limits assumed): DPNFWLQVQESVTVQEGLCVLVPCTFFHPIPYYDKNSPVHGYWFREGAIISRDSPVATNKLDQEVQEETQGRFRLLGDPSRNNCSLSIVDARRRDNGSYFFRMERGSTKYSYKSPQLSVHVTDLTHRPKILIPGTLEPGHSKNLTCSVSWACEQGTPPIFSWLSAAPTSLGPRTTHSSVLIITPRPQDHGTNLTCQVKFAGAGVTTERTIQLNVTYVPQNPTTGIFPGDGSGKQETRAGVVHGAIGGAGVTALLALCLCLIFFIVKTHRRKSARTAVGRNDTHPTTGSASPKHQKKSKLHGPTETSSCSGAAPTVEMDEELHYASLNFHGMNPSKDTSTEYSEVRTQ

[10] = target: human CD33 R287A (human) (UniProt P20138)
Sequence of human CD33 R287A (human) (P20138 18-364 R287A limits assumed): as the sequence (P20138 18-364 A289S limits assumed) above, with R270A, S272A counted along it

[11] = target: human CD33 A272S (human) (UniProt P20138)
[12] = target: human CD33 F280A (human) (UniProt P20138)
Sequence of human CD33 F280A (human) (P20138 18-364 F280A limits assumed): as the sequence (P20138 18-364 A289S limits assumed) above, with F263A, S272A counted along it

[13] = target: human CD33 P330A (human) (UniProt P20138)
Sequence of human CD33 P330A (human) (P20138 18-364 P330A limits assumed): as the sequence (P20138 18-364 A289S limits assumed) above, with S272A, P313A counted along it

[14] = target: human CD33 H339A (human) (UniProt P20138)
[15] = target: human CD33 V282A (human) (UniProt P20138)
[16] = target: human CD33 H317A (human) (UniProt P20138)
[17] = target: human CD33 G295A (human) (UniProt P20138)
Sequence of human CD33 G295A (human) (P20138 18-364 G295A limits assumed): as the sequence (P20138 18-364 A289S limits assumed) above, with S272A, G278A counted along it

[18] = target: human CD33 L271A (human) (UniProt P20138)
[19] = target: human CD33 Q311A (human) (UniProt P20138)
Sequence of human CD33 Q311A (human) (P20138 18-364 Q311A limits assumed): as the sequence (P20138 18-364 A289S limits assumed) above, with S272A, Q294A counted along it

[20] = target: human CD33 E336A (human) (UniProt P20138)
Sequence of human CD33 E336A (human) (P20138 18-364 E336A limits assumed): as the sequence (P20138 18-364 A289S limits assumed) above, with S272A, E319A counted along it

[21] = target: human CD33 A290S (human) (UniProt P20138)
[22] = target: human CD33 K312A (human) (UniProt P20138)
[23] = target: human CD33 L273A (human) (UniProt P20138)
Sequence of human CD33 L273A (human) (P20138 18-364 L273A limits assumed): as the sequence (P20138 18-364 A289S limits assumed) above, with L256A, S272A counted along it

[24] = target: human CD33 R296A (human) (UniProt P20138)
[25] = target: human CD33 T331A (human) (UniProt P20138)
[26] = target: human CD33 S324A (human) (UniProt P20138)
[27] = target: human CD33 S326A (human) (UniProt P20138)
Sequence of human CD33 S326A (human) (P20138 18-364 S326A limits assumed): as the sequence (P20138 18-364 A289S limits assumed) above, with S272A, S309A counted along it

[28] = target: human CD33 M334A (human) (UniProt P20138)
[29] = target: human CD33 R286A (human) (UniProt P20138)
[30] = target: human CD33 P301A (human) (UniProt P20138)
[31] = target: human CD33 A341S (human) (UniProt P20138)
Sequence of human CD33 A341S (human) (P20138 18-364 A341S limits assumed): as the sequence (P20138 18-364 A289S limits assumed) above, with S272A, A324S counted along it

[32] = target: human CD33 V294A (human) (UniProt P20138)
[33] = target: human CD33 K313A (human) (UniProt P20138)
[34] = target: human CD33 Y340A (human) (UniProt P20138)
[35] = target: human CD33 V332A (human) (UniProt P20138)
[36] = target: human CD33 S323A (human) (UniProt P20138)
[37] = target: human CD33 E333A (human) (UniProt P20138)
Sequence of human CD33 E333A (human) (P20138 18-364 E333A limits assumed): as the sequence (P20138 18-364 A289S limits assumed) above, with S272A, E316A counted along it

[38] = target: human CD33 A328S (human) (UniProt P20138)
[39] = target: human CD33 F345A (human) (UniProt P20138)
[40] = target: human CD33 A293S (human) (UniProt P20138)
[41] = target: human CD33 A306S (human) (UniProt P20138)
[42] = target: human CD33 K288A (human) (UniProt P20138)
[43] = target: human CD33 H300A (human) (UniProt P20138)
Sequence of human CD33 H300A (human) (P20138 18-364 H300A limits assumed): as the sequence (P20138 18-364 A289S limits assumed) above, with S272A, H283A counted along it

[44] = target: human CD33 L275A (human) (UniProt P20138)
[45] = target: human CD33 T322A (human) (UniProt P20138)
[46] = target: human CD33 S314A (human) (UniProt P20138)

Sequence of human CD33 N297A (human) (P20138 18-364 N297A limits assumed): as the sequence (P20138 18-364 A289S limits assumed) above, with S272A, N280A counted along it
Sequence of human CD33 T284A (human) (P20138 18-364 T284A limits assumed): as the sequence (P20138 18-364 A289S limits assumed) above, with T267A, S272A counted along it

Refmab #7 (WM53) (antibody) gave a Mean % WT Binding [1] of 81.2 % WT binding, a Mean % WT Binding [2] of 120 % WT binding and a Mean % WT Binding [3] of 91.7 % WT binding. For the same substance, the Mean % WT Binding [4] was 120 % WT binding, the Mean % WT Binding [5] was 111 % WT binding and the Mean % WT Binding [6] was 109 % WT binding. It also gave a Mean % WT Binding [7] of 124 % WT binding, a Mean % WT Binding [8] of 124 % WT binding and a Mean % WT Binding [9] of 107 % WT binding. The Mean % WT Binding [10] was 91.1 % WT binding, the Mean % WT Binding [11] was 113 % WT binding and the Mean % WT Binding [12] was 104 % WT binding. The Mean % WT Binding [13] was 102 % WT binding, the Mean % WT Binding [14] was 133 % WT binding and the Mean % WT Binding [15] was 106 % WT binding. The Mean % WT Binding [16] was 112 % WT binding, the Mean % WT Binding [17] was 115 % WT binding and the Mean % WT Binding [18] was 113 % WT binding. It also gave a Mean % WT Binding [19] of 93.6 % WT binding, a Mean % WT Binding [20] of 98.4 % WT binding and a Mean % WT Binding [21] of 98 % WT binding. For the same substance, the Mean % WT Binding [22] was 101 % WT binding, the Mean % WT Binding [23] was 92.5 % WT binding and the Mean % WT Binding [24] was 93.6 % WT binding. The Mean % WT Binding [25] was 108 % WT binding, the Mean % WT Binding [26] was 99.2 % WT binding and the Mean % WT Binding [27] was 103 % WT binding. For the same substance, the Mean % WT Binding [28] was 93.9 % WT binding, the Mean % WT Binding [29] was 134 % WT binding and the Mean % WT Binding [30] was 99.8 % WT binding. It also gave a Mean % WT Binding [31] of 95 % WT binding, a Mean % WT Binding [32] of 126 % WT binding and a Mean % WT Binding [33] of 108 % WT binding. The Mean % WT Binding [34] was 112 % WT binding, the Mean % WT Binding [35] was 112 % WT binding and the Mean % WT Binding [36] was 109 % WT binding. For the same substance, the Mean % WT Binding [37] was 91 % WT binding, the Mean % WT Binding [38] was 119 % WT binding and the Mean % WT Binding [39] was 140 % WT binding. It also gave a Mean % WT Binding [40] of 120 % WT binding, a Mean % WT Binding [41] of 100 % WT binding and a Mean % WT Binding [42] of 128 % WT binding. For the same substance, the Mean % WT Binding [43] was 106 % WT binding, the Mean % WT Binding [44] was 106 % WT binding and the Mean % WT Binding [45] was 102 % WT binding. It also gave a Mean % WT Binding [46] of 107 % WT binding.

Reference: patent US20260242735A1
